Patent publication US20050148763A1, “Peg-binding pth or peg-binding pth derivative” (Chugai Seiyaku Kabushiki Kaisha, priority 2002, published 2005)

Assay: Pharmacokinetics and bioavailability in rats by subcutaneous route
Type: in vivo
Conditions: subcutaneous, 80 μg/mL at 1 mL/kg
Procedure: Each sample was adjusted to 80 μg/mL by dilution with 25 mmol/L citrate-phosphate buffer (pH 5.0) containing 100 mmol/L NaCl and 0.05 vol % Tween 20 to give a solution for administration. Male SD rats at 6 weeks of age (CLEA Japan, Inc.) were provided for this experiment. Intravenous injection was performed on rats having polyethylene tubes (SP-31, Natsume Seisakusho Co., Ltd.) inserted into the femoral artery and vein. The solutions thus prepared were each administered at a dose of 1 mL/kg through a polyethylene tube inserted into the femoral vein, and blood was collected through a polyethylene tube inserted into the femoral artery before administration and at 5, 15, 30 and 45 minutes as well as 1, 2, 4, 6, 8 and 24 hours after administration. Subcutaneous administration was performed on rats having polyethylene tubes inserted into the femoral artery. The solutions prepared above were each subcutaneously administered at a dose of 1 mL/kg to the dorsal neck region of the rats, and blood was collected in the same manner as used for intravenous injection. These blood samples were centrifuged to collect plasma and stored at −40° C. until assayed for PTH(1-34) or PEG-PTH(1-34) levels.
The level of PTH(1-34) or PEG-PTH(1-34) was determined by RIA analysis using a Rat PTH IRMA Kit (Immutopics). A Cobra Quantum Model 5005 gamma counter (Packard) was used to measure radioactivity for each sample. The plasma level of PTH(1-34) or PEG-PTH(1-34) was calculated from a calibration curve prepared using PTH(1-34) or PEG-PTH(1-34). The Winnonlin program Ver. 2.1 (Scientific Consulting Inc.) was used to analyze the time course of changes in the calculated plasma PTH(1-34) or PEG-PTH(1-34) levels (FIG. 3: by intravenous route; FIG. 4: by subcutaneous route) to calculate the following as pharmacokinetic parameters: time required to reach the maximum plasma level (Tmax); maximum plasma level (Cmax); area under the curve of plasma levels (AUC); plasma half-life (t1/2); total body clearance (Cltotal); mean residence time in the body (MRT); and bioavailability (BA). […]

20k PEG-hPTH(1-34): hPTH(1-34) reacted with mPEG 20 k-SPA, fraction having one 20 kDa PEG molecule per PTH molecule
AUC: 2693.945 ng·h/mL | MRT: 18.93 h | Tmax: 7.000 h | t ½: 11.346 h
